Results published in the supplement of paper PMC9876800.

Test system: peptide library, one residue held at a place counted from the S/T acceptor
Test: relative phosphorylation of the sub-library (ratio to the mean residue at this position); human; higher = residue favoured
Conditions: V fixed; at +3
How it was run: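 Spots on streptavidin membranes were phosphorimaged and quantified by densitometry to measure phosphorylation of biotinylated degenerate peptide sub-libraries by purified recombinant kinases, human or orthologue constructs. The reactions ran in 384-well plates for 90 min under kinase-specific conditions, with peptides at 50 μM and 50 μM ATP spiked with γ-32P-ATP. Relative sub-library phosphorylation is the ratio to the mean residue at that position.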

CSNK1A1L, construct: Full length, sequence (Q8N752 whole entry, looked up): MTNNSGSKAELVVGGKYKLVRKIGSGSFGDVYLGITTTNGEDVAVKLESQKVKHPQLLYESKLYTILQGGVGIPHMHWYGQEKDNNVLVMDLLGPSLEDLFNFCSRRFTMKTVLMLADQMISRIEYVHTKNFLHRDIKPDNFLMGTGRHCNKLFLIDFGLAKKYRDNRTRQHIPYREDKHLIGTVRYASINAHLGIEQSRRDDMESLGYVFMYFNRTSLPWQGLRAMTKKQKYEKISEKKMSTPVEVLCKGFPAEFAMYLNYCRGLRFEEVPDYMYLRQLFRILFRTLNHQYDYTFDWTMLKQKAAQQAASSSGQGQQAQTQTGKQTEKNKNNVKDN
TSSK1B, construct: Full length, sequence (Q9BXA7 whole entry, looked up): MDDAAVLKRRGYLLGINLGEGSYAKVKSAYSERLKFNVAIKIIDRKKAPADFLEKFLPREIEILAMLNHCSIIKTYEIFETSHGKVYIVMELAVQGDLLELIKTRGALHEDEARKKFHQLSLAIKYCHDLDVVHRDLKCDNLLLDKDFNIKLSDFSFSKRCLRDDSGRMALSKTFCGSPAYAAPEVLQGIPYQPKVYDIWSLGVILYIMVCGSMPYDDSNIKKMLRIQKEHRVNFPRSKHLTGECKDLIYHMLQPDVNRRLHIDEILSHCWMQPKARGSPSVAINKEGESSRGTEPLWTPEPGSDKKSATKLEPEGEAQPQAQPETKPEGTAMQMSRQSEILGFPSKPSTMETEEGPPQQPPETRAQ
CSNK1G3, construct: Full length, sequence (Q9Y6M4 whole entry, looked up): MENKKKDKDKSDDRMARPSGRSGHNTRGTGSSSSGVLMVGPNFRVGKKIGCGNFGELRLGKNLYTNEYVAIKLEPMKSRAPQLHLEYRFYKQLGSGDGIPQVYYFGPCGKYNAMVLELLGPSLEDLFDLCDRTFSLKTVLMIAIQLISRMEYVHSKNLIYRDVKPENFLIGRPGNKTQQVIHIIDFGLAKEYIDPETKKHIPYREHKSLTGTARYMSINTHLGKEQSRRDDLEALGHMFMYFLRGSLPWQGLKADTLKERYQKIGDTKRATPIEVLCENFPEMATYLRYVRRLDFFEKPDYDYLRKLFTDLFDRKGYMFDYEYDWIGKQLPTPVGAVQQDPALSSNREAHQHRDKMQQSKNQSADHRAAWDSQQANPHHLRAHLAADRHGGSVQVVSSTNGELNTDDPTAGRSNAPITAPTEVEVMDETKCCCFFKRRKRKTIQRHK
PAK1, construct: aa150-end, sequence (Q13153 150-545, looked up): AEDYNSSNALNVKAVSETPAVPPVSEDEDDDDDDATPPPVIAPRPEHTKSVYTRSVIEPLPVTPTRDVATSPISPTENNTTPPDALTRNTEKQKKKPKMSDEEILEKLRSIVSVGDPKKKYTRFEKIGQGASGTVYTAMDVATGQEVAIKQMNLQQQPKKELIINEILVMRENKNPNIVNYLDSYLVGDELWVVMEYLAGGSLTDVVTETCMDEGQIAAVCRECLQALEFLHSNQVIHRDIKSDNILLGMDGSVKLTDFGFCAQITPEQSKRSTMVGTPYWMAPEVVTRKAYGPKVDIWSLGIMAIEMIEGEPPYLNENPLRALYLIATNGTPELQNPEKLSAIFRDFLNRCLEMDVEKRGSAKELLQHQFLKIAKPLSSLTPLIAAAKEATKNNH
CDKL1, construct: aa2-304, sequence (Q00532 2-304, looked up): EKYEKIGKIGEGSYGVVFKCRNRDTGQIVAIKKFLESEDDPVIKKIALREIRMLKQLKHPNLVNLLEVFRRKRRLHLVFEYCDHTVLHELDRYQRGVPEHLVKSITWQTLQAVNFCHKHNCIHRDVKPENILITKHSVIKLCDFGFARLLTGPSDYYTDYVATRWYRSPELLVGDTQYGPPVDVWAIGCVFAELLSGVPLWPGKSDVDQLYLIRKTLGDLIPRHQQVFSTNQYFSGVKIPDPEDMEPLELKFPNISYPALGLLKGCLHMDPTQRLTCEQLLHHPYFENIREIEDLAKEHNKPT
CIT, construct: aa1-449, sequence (O14578 1-449, looked up): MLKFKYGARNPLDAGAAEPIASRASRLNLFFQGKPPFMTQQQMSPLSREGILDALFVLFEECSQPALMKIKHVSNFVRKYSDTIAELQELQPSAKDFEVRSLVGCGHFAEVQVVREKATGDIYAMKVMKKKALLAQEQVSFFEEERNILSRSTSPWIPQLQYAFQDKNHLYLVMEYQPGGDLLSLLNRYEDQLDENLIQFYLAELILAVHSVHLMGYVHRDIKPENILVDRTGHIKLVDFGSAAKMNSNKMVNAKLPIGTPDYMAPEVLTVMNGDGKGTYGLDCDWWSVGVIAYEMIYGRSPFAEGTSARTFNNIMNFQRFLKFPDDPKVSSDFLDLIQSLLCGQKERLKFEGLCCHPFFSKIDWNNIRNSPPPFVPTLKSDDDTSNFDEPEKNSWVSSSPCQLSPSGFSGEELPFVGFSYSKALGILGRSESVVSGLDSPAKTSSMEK
CAMK2D, construct: Full length, sequence (Q13557 whole entry, looked up): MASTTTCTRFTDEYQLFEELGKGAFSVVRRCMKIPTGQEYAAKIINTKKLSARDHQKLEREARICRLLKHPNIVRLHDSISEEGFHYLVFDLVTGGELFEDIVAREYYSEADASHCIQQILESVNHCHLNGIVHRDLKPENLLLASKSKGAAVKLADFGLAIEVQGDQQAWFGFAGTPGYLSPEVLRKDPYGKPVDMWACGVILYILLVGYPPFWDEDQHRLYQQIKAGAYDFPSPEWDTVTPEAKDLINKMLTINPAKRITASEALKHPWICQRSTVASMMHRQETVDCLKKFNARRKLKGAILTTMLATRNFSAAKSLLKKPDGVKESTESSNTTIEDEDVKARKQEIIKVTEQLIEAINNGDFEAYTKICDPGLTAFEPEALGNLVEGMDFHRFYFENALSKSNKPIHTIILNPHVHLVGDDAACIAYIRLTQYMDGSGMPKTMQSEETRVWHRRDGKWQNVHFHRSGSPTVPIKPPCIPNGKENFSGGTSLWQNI
ACVR1B, construct: aa150-end, sequence (P36896 150-505, looked up): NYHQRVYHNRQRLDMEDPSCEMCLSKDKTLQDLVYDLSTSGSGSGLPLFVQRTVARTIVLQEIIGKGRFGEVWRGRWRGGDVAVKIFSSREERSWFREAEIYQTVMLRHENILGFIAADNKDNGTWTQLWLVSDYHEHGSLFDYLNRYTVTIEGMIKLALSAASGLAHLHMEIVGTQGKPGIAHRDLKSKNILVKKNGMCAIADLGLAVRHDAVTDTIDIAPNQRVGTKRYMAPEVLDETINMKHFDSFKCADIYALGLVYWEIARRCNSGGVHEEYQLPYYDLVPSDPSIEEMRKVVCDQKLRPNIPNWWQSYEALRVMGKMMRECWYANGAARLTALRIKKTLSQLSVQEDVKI

Point of comparison: “CAMK2D, construct: Full length (from UniProt Q13557)”, relative phosphorylation 0.835. Against it:
- CDKL1, construct: aa2-304 (from UniProt Q00532) — higher, 0.944
- ACVR1B, construct: aa150-end (from UniProt P36896) — higher, 1.09
- TSSK1B, construct: Full length (from UniProt Q9BXA7) — lower, 0.632
- CSNK1A1L, construct: Full length (from UniProt Q8N752) — higher, 1.14
- CSNK1G3, construct: Full length (from UniProt Q9Y6M4) — lower, 0.794

Same assay, conditions: V fixed; at +4

Point of comparison: “CIT, construct: aa1-449 (from UniProt O14578)”, relative phosphorylation 0.805. Against it:
- PAK1, construct: aa150-end (from UniProt Q13153) — higher, 0.851
- CAMK2D, construct: Full length (from UniProt Q13557) — lower, 0.787
- CDKL1, construct: aa2-304 (from UniProt Q00532) — higher, 0.83
- ACVR1B, construct: aa150-end (from UniProt P36896) — higher, 0.929
- TSSK1B, construct: Full length (from UniProt Q9BXA7) — higher, 1.34
- CSNK1A1L, construct: Full length (from UniProt Q8N752) — higher, 1.02
- CSNK1G3, construct: Full length (from UniProt Q9Y6M4) — higher, 0.814

Same assay, conditions: V fixed; at -1

Point of comparison: “CSNK1G3, construct: Full length (from UniProt Q9Y6M4)”, relative phosphorylation 1.23. Against it:
- CIT, construct: aa1-449 (from UniProt O14578) — lower, 0.506
- PAK1, construct: aa150-end (from UniProt Q13153) — lower, 0.766
- CAMK2D, construct: Full length (from UniProt Q13557) — lower, 0.728
- CDKL1, construct: aa2-304 (from UniProt Q00532) — lower, 0.736
- ACVR1B, construct: aa150-end (from UniProt P36896) — lower, 1.12
- TSSK1B, construct: Full length (from UniProt Q9BXA7) — lower, 0.59
- CSNK1A1L, construct: Full length (from UniProt Q8N752) — lower, 0.854

Same assay, conditions: V fixed; at -2

Point of comparison: “CIT, construct: aa1-449 (from UniProt O14578)”, relative phosphorylation 0.838. Against it:
- PAK1, construct: aa150-end (from UniProt Q13153) — lower, 0.724
- CAMK2D, construct: Full length (from UniProt Q13557) — lower, 0.655
- CDKL1, construct: aa2-304 (from UniProt Q00532) — higher, 0.873
- ACVR1B, construct: aa150-end (from UniProt P36896) — lower, 0.603
- TSSK1B, construct: Full length (from UniProt Q9BXA7) — higher, 1.11
- CSNK1A1L, construct: Full length (from UniProt Q8N752) — higher, 0.889
- CSNK1G3, construct: Full length (from UniProt Q9Y6M4) — higher, 1.17

Same assay, conditions: V fixed; at -3

Point of comparison: “PAK1, construct: aa150-end (from UniProt Q13153)”, relative phosphorylation 0.431. Against it:
- CIT, construct: aa1-449 (from UniProt O14578) — lower, 0.299
- CAMK2D, construct: Full length (from UniProt Q13557) — higher, 0.551
- CDKL1, construct: aa2-304 (from UniProt Q00532) — higher, 0.54
- ACVR1B, construct: aa150-end (from UniProt P36896) — higher, 0.867
- TSSK1B, construct: Full length (from UniProt Q9BXA7) — higher, 0.545
- CSNK1A1L, construct: Full length (from UniProt Q8N752) — higher, 0.813
- CSNK1G3, construct: Full length (from UniProt Q9Y6M4) — higher, 0.458

Same assay, conditions: V fixed; at -4

Point of comparison: “CSNK1G3, construct: Full length (from UniProt Q9Y6M4)”, relative phosphorylation 0.669. Against it:
- CIT, construct: aa1-449 (from UniProt O14578) — higher, 0.683
- PAK1, construct: aa150-end (from UniProt Q13153) — lower, 0.624
- CAMK2D, construct: Full length (from UniProt Q13557) — higher, 0.926
- CDKL1, construct: aa2-304 (from UniProt Q00532) — higher, 0.967
- ACVR1B, construct: aa150-end (from UniProt P36896) — higher, 0.843
- TSSK1B, construct: Full length (from UniProt Q9BXA7) — higher, 0.797
- CSNK1A1L, construct: Full length (from UniProt Q8N752) — higher, 0.956

Same assay, conditions: V fixed; at -5

Point of comparison: “PAK1, construct: aa150-end (from UniProt Q13153)”, relative phosphorylation 0.707. Against it:
- CIT, construct: aa1-449 (from UniProt O14578) — lower, 0.523
- CAMK2D, construct: Full length (from UniProt Q13557) — higher, 0.92
- CDKL1, construct: aa2-304 (from UniProt Q00532) — higher, 0.896
- ACVR1B, construct: aa150-end (from UniProt P36896) — higher, 0.816
- TSSK1B, construct: Full length (from UniProt Q9BXA7) — higher, 1.76
- CSNK1A1L, construct: Full length (from UniProt Q8N752) — higher, 0.925
- CSNK1G3, construct: Full length (from UniProt Q9Y6M4) — higher, 0.876

Same assay, conditions: W fixed; at +1

Point of comparison: “CIT, construct: aa1-449 (from UniProt O14578)”, relative phosphorylation 1.55. Against it:
- PAK1, construct: aa150-end (from UniProt Q13153) — higher, 1.57
- CAMK2D, construct: Full length (from UniProt Q13557) — lower, 0.636
- CDKL1, construct: aa2-304 (from UniProt Q00532) — lower, 0.819
- ACVR1B, construct: aa150-end (from UniProt P36896) — lower, 1.14
- TSSK1B, construct: Full length (from UniProt Q9BXA7) — lower, 0.893
- CSNK1A1L, construct: Full length (from UniProt Q8N752) — lower, 0.769
- CSNK1G3, construct: Full length (from UniProt Q9Y6M4) — lower, 1.01

Same assay, conditions: W fixed; at +2

Point of comparison: “ACVR1B, construct: aa150-end (from UniProt P36896)”, relative phosphorylation 0.919. Against it:
- CIT, construct: aa1-449 (from UniProt O14578) — higher, 1.16
- PAK1, construct: aa150-end (from UniProt Q13153) — higher, 0.978
- CAMK2D, construct: Full length (from UniProt Q13557) — lower, 0.619
- CDKL1, construct: aa2-304 (from UniProt Q00532) — lower, 0.808
- TSSK1B, construct: Full length (from UniProt Q9BXA7) — lower, 0.845
- CSNK1A1L, construct: Full length (from UniProt Q8N752) — higher, 1.06
- CSNK1G3, construct: Full length (from UniProt Q9Y6M4) — higher, 1.23

Same assay, conditions: W fixed; at +3

Point of comparison: “PAK1, construct: aa150-end (from UniProt Q13153)”, relative phosphorylation 1.03. Against it:
- CIT, construct: aa1-449 (from UniProt O14578) — higher, 1.31
- CAMK2D, construct: Full length (from UniProt Q13557) — lower, 0.977
- CDKL1, construct: aa2-304 (from UniProt Q00532) — lower, 0.899
- ACVR1B, construct: aa150-end (from UniProt P36896) — lower, 0.903
- TSSK1B, construct: Full length (from UniProt Q9BXA7) — higher, 1.56
- CSNK1A1L, construct: Full length (from UniProt Q8N752) — higher, 1.16
- CSNK1G3, construct: Full length (from UniProt Q9Y6M4) — higher, 1.11

Same assay, conditions: W fixed; at +4

Point of comparison: “PAK1, construct: aa150-end (from UniProt Q13153)”, relative phosphorylation 0.806. Against it:
- CIT, construct: aa1-449 (from UniProt O14578) — higher, 1.21
- CAMK2D, construct: Full length (from UniProt Q13557) — higher, 1.1
- CDKL1, construct: aa2-304 (from UniProt Q00532) — higher, 1.09
- ACVR1B, construct: aa150-end (from UniProt P36896) — higher, 1.07
- TSSK1B, construct: Full length (from UniProt Q9BXA7) — lower, 0.719
- CSNK1A1L, construct: Full length (from UniProt Q8N752) — higher, 1.24
